# Data as given in the supplement of paper PMC10266784.
# B1: library; numbered along this chain (parent)
# chain: MAAAAAAAAEQQSSNGPVKKSMREKAVERRSVNKEHNSNFKAGYIPIDEDRLHKTGLRGRKGNLAICVIILLFILAVINLIITLVIWAVIRIGPNGCDSMEFHESGLLRFKQVSDMGVIHPLYKSTVGGRRNENLVITGNNQPIVFQQGTTKLSVENNKTSITSDIGMQFFDPRTQNILFSTDYETHEFHLPSGVKSLNVQKASTERITSNATSDLNIKVDGRAIVRGNEGVFIMGKTIEFHMGGNMELKAENSIILNGSVMVSTTRLPSSSSGDQLGSGDWVRYKLCMCADGTLFKVQVTSQNMGCQISDNPCGNTH
# Variants of: B1
# Test: SGCB cell-surface expression functional score (HA stain, bin4 vs bin1, normalised to synonymous) (log10 ratio); higher = more cell-surface SGCB (functional)
# Protocol: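 Deep mutational scan of full-length human SGCB (YFP-SGCB-HA, NNN codon sublibraries A-F) delivered by lentivirus at low MOI into ADG-HEK293 cells stably expressing SGCA, SGCD and SGCG. YFP-positive cells were stained for surface HA on unpermeabilized cells and FACS-sorted into bins. The functional score is log10(frequency in high bin 4 / frequency in low bin 1), normalised per chunk so that synonymous variants have mean 0 and SD 0.5. Scores are the median over codons and over duplicate biological replicates; scores below -0.5 are called non-functional. Scale: negative means deleterious.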
row,Variant,SGCB cell-surface expression functional score (log10)
1,C97H,-2.29
2,E230T,1.29
3,C67I,0.33
4,V32C,0.14
5,I234K,-1.32
6,M235R,0.56
7,S181P,-1.69
8,F102S,-1.18
9,S14F,0.19
10,V127A,-0.57
11,V18F,0
12,R109H,-0.61
13,V85E,0.35
14,S272V,-0.14
15,I78V,0
16,H36E,0.05
17,M1N,0.37
18,H120T,0.44
19,K20Y,-0.59
20,T205Q,-2.06
21,S161V,-0.12

row,Variant,SGCB cell-surface expression functional score (log10)
1,F102E,-1.93
2,N177S,0.02
3,R51I,0.36
4,I92N,-1.68
5,Q112A,-0.21
6,L108W,-0.215
7,S260K,-0.81
8,S114Q,-1.66
9,E49Y,0.09
10,N253T,0.39
11,G194L,-1.02
12,V200R,-1.87
13,G194I,-1.66
14,A5F,0.61
15,I92R,-1.46
16,V200D,-1.23
17,M116R,-1.55
18,T213G,0.65
19,E10D,0.45
20,L122R,0.49
21,N39W,-0.81

row,Variant,SGCB cell-surface expression functional score (log10)
1,D275H,-0.97
2,V113I,0.04
3,N158V,-0.44
4,S310C,-0.2
5,K250S,0.33
6,N37R,-0.21
7,C97T,-0.03
8,M22L,0.37
9,N15L,0.32
10,H190F,0.15
11,G96C,-1.66
12,D165T,0.73
13,V263R,-0.48
14,I81G,0
15,S302R,0.1
16,D292Q,-1.17
17,M116D,-0.59
18,K19G,0.02
19,L72Y,-0.04
20,D172M,0.46
21,I144E,-1.11

row,Variant,SGCB cell-surface expression functional score (log10)
1,R58T,0.24
2,V127G,-0.79
3,Q201I,0.46
4,M116V,-1.02
5,E49N,0.48
6,V113Y,-0.42
7,N157D,-0.02
8,N141F,-0.33
9,S125C,0.13
10,T301N,-0.45
11,K219Y,-0.13
12,R174Y,-0.17
13,S105N,-0.63
14,N199D,0.38
15,P46V,-0.23
16,P143Y,-0.63
17,N316S,-0.05
18,W282M,-0.29
19,A2C,0.1
20,R23L,0.16
21,V145M,-0.9
